# Results as given in patent publication US20140303356A1.
# Molecular target: CD20 on Daudi and Raji cells (UniProt P11836)
# Assay: not given
# CD20 on Daudi and Raji cells, sequence (P11836 whole entry): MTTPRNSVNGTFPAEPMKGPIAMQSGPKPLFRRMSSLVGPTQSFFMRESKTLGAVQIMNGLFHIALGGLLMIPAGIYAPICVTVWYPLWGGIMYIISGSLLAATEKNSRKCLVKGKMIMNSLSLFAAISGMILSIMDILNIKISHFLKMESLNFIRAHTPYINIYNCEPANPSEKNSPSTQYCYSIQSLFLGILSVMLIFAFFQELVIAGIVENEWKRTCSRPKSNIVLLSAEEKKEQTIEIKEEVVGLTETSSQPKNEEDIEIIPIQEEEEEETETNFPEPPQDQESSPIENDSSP
row,Substance,EC50 (read off the curve) [µg/mL]
1,IgG1-7D8-K409R (from UniProt P01857 1-330) (antibody),0.4

# Molecular target: IgG1-7D8-K409R (human) [IgG part: P01857]
# Assay: cell-based or functional assay
row,Substance,Bispecific binding (% relative to positive control) [%]
1,IgG1-2F8-Y407Q (antibody),1
2,IgG1-2F8-L368E (antibody),37
3,IgG1-2F8-D399F (antibody),14
4,IgG1-2F8-D399K (antibody),34
5,IgG1-2F8-L368R (antibody),52
6,IgG1-2F8-F405I (antibody),39
7,IgG1-2F8-F405W (antibody),16
8,IgG1-2F8-L368V (antibody),33
9,IgG1-2F8-L368D (antibody),41
10,IgG1-2F8-L368T (antibody),39
11,IgG1-2F8-D399H (antibody),10
12,IgG1-2F8-Y407L (antibody),49
13,IgG1-2F8-F405K (antibody),47
14,IgG1-2F8-L368W (antibody),41
15,IgG1-2F8-L368N (antibody),43
16,IgG1-2F8-L368H (antibody),21
17,IgG1-2F8-L368S (antibody),37
18,IgG1-2F8-F405S (antibody),45
19,IgG1-2F8-D399Q (antibody),0
20,IgG1-2F8-F405T (antibody),42
21,IgG1-2F8-Y407W (antibody),47
22,IgG1-2F8-L368A (antibody),25
23,IgG1-2F8-D399R (antibody),38
24,IgG1-2F8-L368G (antibody),44
25,IgG1-2F8-F405V (antibody),37

# Molecular target: IgG1-7D8-K409G (human) [IgG part: P01857]
# Assay: cell-based or functional assay
Substance,Bispecific binding (% relative to positive control) [%],"Fab-arm exchange compared to the positive control, 20° C., 200 min [%]","Fab-arm exchange efficiency compared to the positive control, 15° C., 200 min [%]"
IgG1-2F8-Y407Q (antibody),9,,
IgG1-2F8-L368E (antibody),38,,
IgG1-2F8-D399F (antibody),15,,
IgG1-2F8-D399K (antibody),43,,
IgG1-2F8-L368R (antibody),64,,
IgG1-2F8-F405I (antibody),49,,
IgG1-2F8-F405W (antibody),20,,
IgG1-2F8-L368V (antibody),49,,
IgG1-2F8-L368D (antibody),50,,
IgG1-2F8-L368T (antibody),51,,
IgG1-2F8-D399H (antibody),14,,
IgG1-2F8-Y407L (antibody),41,,
IgG1-2F8-F405K (antibody),48,,
IgG1-2F8-L368W (antibody),56,,
IgG1-2F8-L368N (antibody),52,,
IgG1-2F8-L368H (antibody),25,,
IgG1-2F8-L368S (antibody),45,,
IgG1-2F8-F405S (antibody),51,,
IgG1-2F8-D399Q (antibody),0,,
IgG1-2F8-F405T (antibody),47,,
IgG1-2F8-Y407W (antibody),53,,
IgG1-2F8-L368A (antibody),33,,
IgG1-2F8-D399R (antibody),45,85,85
IgG1-2F8-L368G (antibody),53,,
IgG1-2F8-F405V (antibody),46,,

# Molecular target: IgG1-7D8-K409A (human) [IgG part: P01857]
# Assay: cell-based or functional assay
Substance,Bispecific binding (% relative to positive control) [%],"Fab-arm exchange compared to the positive control, 20° C., 200 min [%]","Fab-arm exchange efficiency compared to the positive control, 15° C., 200 min [%]"
IgG1-2F8-Y407Q (antibody),4,,
IgG1-2F8-L368E (antibody),32,,
IgG1-2F8-D399F (antibody),13,,
IgG1-2F8-D399K (antibody),40,,
IgG1-2F8-L368R (antibody),55,,
IgG1-2F8-F405I (antibody),32,,
IgG1-2F8-F405W (antibody),17,,
IgG1-2F8-L368V (antibody),42,,
IgG1-2F8-L368D (antibody),49,,
IgG1-2F8-L368T (antibody),42,,
IgG1-2F8-D399H (antibody),12,,
IgG1-2F8-Y407L (antibody),44,,
IgG1-2F8-F405K (antibody),29,,
IgG1-2F8-L368W (antibody),56,,
IgG1-2F8-L368N (antibody),47,,
IgG1-2F8-L368H (antibody),26,,
IgG1-2F8-L368S (antibody),39,,
IgG1-2F8-F405S (antibody),34,90,65
IgG1-2F8-D399Q (antibody),0,,
IgG1-2F8-F405T (antibody),35,,
IgG1-2F8-Y407W (antibody),48,,
IgG1-2F8-L368A (antibody),33,,
IgG1-2F8-D399R (antibody),47,,
IgG1-2F8-L368G (antibody),46,,
IgG1-2F8-F405V (antibody),36,,

# Molecular target: IgG1-7D8-K409H (human) [IgG part: P01857]
# Assay: cell-based or functional assay
Substance,Bispecific binding (% relative to positive control) [%],"Fab-arm exchange efficiency compared to the positive control, 15° C., 200 min [%]"
IgG1-2F8-Y407Q (antibody),44,
IgG1-2F8-L368E (antibody),42,
IgG1-2F8-D399F (antibody),15,
IgG1-2F8-D399K (antibody),46,
IgG1-2F8-L368R (antibody),91,100
IgG1-2F8-F405I (antibody),60,
IgG1-2F8-F405W (antibody),18,
IgG1-2F8-L368V (antibody),51,
IgG1-2F8-L368D (antibody),54,
IgG1-2F8-L368T (antibody),56,
IgG1-2F8-D399H (antibody),19,
IgG1-2F8-Y407L (antibody),49,
IgG1-2F8-F405K (antibody),40,
IgG1-2F8-L368W (antibody),60,
IgG1-2F8-L368N (antibody),54,
IgG1-2F8-L368H (antibody),29,
IgG1-2F8-L368S (antibody),53,
IgG1-2F8-F405S (antibody),39,
IgG1-2F8-D399Q (antibody),0,
IgG1-2F8-F405T (antibody),46,
IgG1-2F8-Y407W (antibody),62,
IgG1-2F8-L368A (antibody),37,
IgG1-2F8-D399R (antibody),52,
IgG1-2F8-L368G (antibody),53,
IgG1-2F8-F405V (antibody),43,

# Molecular target: CH2-CH3 construct G4-R409K (human)
# Assay: native MS, monomer-dimer equilibrium of CH2-CH3 fragment
Substance,Kd [nM],fold-difference (against wild type CH2-CH3 fragment) [fold]
CH2-CH3 construct G4-R409K,8,6

# Molecular target: CH2-CH3 construct G4-F405A (human)
# Assay: as above
Substance,Kd [nM],fold-difference (against wild type CH2-CH3 fragment) [fold]
CH2-CH3 construct G4-F405A,19000,0.0025

# Molecular target: CH2-CH3 construct G4-E357T (human)
# Assay: as above
Substance,Kd [nM],fold-difference (against wild type CH2-CH3 fragment) [fold]
CH2-CH3 construct G4-E357T,41000,0.0012

# Molecular target: CH2-CH3 construct G4-R409T (human)
# Assay: as above
Substance,Kd [nM],fold-difference (against wild type CH2-CH3 fragment) [fold]
CH2-CH3 construct G4-R409T,720,0.07

# Molecular target: CH2-CH3 construct G4-R409A (human)
# Assay: as above
Substance,Kd [nM],fold-difference (against wild type CH2-CH3 fragment) [fold]
CH2-CH3 construct G4-R409A,160,0.3

# Molecular target: CH2-CH3 construct G1-T350I (human)
# Assay: as above
Substance,Kd [nM],fold-difference (against wild type CH2-CH3 fragment) [fold]
CH2-CH3 construct G1-T350I,7,0.4

# Molecular target: CH2-CH3 construct G4-F405L (human)
# Assay: as above
Substance,Kd [nM],fold-difference (against wild type CH2-CH3 fragment) [fold]
CH2-CH3 construct G4-F405L,25000,0.0019

# Molecular target: CH2-CH3 construct G4-R409W (human)
# Assay: as above
Substance,Kd [nM],fold-difference (against wild type CH2-CH3 fragment) [fold]
CH2-CH3 construct G4-R409W,34000,0.0014

# Molecular target: CH2-CH3 construct G1 (human)
# Assay: as above
Substance,Kd [nM],fold-difference (against wild type CH2-CH3 fragment) [fold]
CH2-CH3 construct G1,3,1

# Molecular target: CH2-CH3 construct G4-R409M (human)
# Assay: as above
Substance,Kd [nM],fold-difference (against wild type CH2-CH3 fragment) [fold]
CH2-CH3 construct G4-R409M,3,16

# Molecular target: CH2-CH3 construct G4-L351K (human)
# Assay: as above
Substance,Kd [nM],fold-difference (against wild type CH2-CH3 fragment) [fold]
CH2-CH3 construct G4-L351K,740,0.06

# Molecular target: CH2-CH3 construct G4-R409L (human)
# Assay: as above
Substance,Kd [nM],fold-difference (against wild type CH2-CH3 fragment) [fold]
CH2-CH3 construct G4-R409L,15,3.2

# Molecular target: CH2-CH3 construct G4 (human)
# Assay: as above
Substance,Kd [nM],fold-difference (against wild type CH2-CH3 fragment) [fold]
CH2-CH3 construct G4,48,1
